What is called Kd is the equilibrium constant for the complex coming apart. A word on the koff: it is the rate constant with which the complex falls apart. What is called kon is the second-order rate constant of association.

This is an account of results in article PMC4672576, “Beninese children with cerebral malaria do not develop humoral immunity against the IT4-VAR19-DC8 PfEMP1 variant linked to EPCR and brain endothelial binding” (Malaria Journal, 2015).

B2: Recombinant soluble EPCR with a 6x His tag (EPCRH) (receptor, human, UniProt Q9UNN8 18-210, looked up)
chain: SQDASDGLQRLHMLQISYFRDPYHVWYQGNASLGGHLTHVLEGPDTNTTIIQLQPLQEPESWARTQSGLQSYLLQFHGLVRLVHQERTLAFPLTIRCFLGCELPPEGSRAHVFFEVAVNGSSFVSFRPERALWQADTQVTSGVVTFTLQQLNAYNRTRYELREFLEDTCVQYVQKHISAENTKGSQTSRSYTS
notes: Endothelial protein C receptor, human, extracellular region residues S18-S210, amplified from a human lung endothelium cDNA library; glycosylated (migrates at about 40 kDa); also called recombinant EPCR; not shown: His6, C-terminal, kept

For assay [1], the target named is B2. Put plainly: SPR; EPCRH immobilised on a CM5 chip by amine coupling (1324 RU); IT4-VAR19 proteins injected 180 s, dissociation 400 s; HBS-EP buffer, 25 °C; Biacore X100; global 1:1 Langmuir fit. Conditions: both partners purified. A general note: Surface plasmon resonance follows binding to a sensor surface in real time, without labels.
Assay [2] concerns the target T1, VAR19-NTS-DBLγ6 (N-terminal region of IT4-VAR19 comprising the full-length DC8 cassette) (Plasmodium falciparum (IT4 strain), UniProt A3R6S3 2-1713).
T1 construct: PfEMP1 IT4-VAR19, Plasmodium falciparum IT4 (FCR3) strain, residues G2-P1713 (NTS, DBLα2, CIDRα1.1, DBLβ12, DBLγ6); synthetic codon-optimised gene; also called NTS-DBLɣ6; IT4-VAR19-DC8 cassette; not shown: His6, C-terminal, kept
The assay is described as above. The following applies: both partners purified.

B1: VAR19-CIDRα1.1 (domain or fragment)
chain: SVECFHSWAKNLLIDTIRWEHQLKNCINNTNVTDCTSKCIKNCECYEKWIKEKEKEWPQVKGVLKKKDETSHNYYDKLKDVFDRFLFEVKGALDQDEKGKWDQFTKDLEKKFGPSVESAGTANSQDAIELLLDHLNDNATTCKDNNSLAVENCPKTKINP
notes: PfEMP1 IT4-VAR19, CIDRα1.1 domain, residues S580-P739, amplified from IT4 genomic DNA
On to B1, for which, in assay [1], the dissociation constant Kd was determined as 340 nM, the koff is 0.012 s⁻¹ and the on-rate constant (kon) is 35000 M⁻¹ s⁻¹.
As for B2, in assay [2], binding was put at a Kd of 52 nM, the dissociation rate constant (koff) stood at 0.0011 s⁻¹ and the association rate constant (kon) was determined as 22000 M⁻¹ s⁻¹.
